Reference: article PMC11640050

Biological target: Rictor (R28 cells)
Assay: co-IP (Rictor IP) with DSP crosslinker, western blot band quantification
Details: TNF+HG treatment

ratio to parent	Substance
0.35	3X-FLAG-tagged wild-type HSPB4 (αA-crystallin) (from UniProt P02489) R21A
0.26	3X-FLAG-tagged wild-type HSPB4 (αA-crystallin) (from UniProt P02489) R49A
0.75	3X-FLAG-tagged wild-type HSPB4 (αA-crystallin) (from UniProt P02489) T148A
0.11	3X-FLAG-tagged wild-type HSPB4 (αA-crystallin) (from UniProt P02489) T148D
